# Source: US20220177587A1, “METHODS AND USES OF VARIANT CD80 FUSION PROTEINS AND RELATED CONSTRUCTS” (Alpine Immune Sciences, Inc., priority 2018, published 2022)
# Residue numbers refer to the chain shown, from its start. Numbers in names are those of the source.
# B1: A26E/E35D/M47L/D90G (protein)
# chain: VIHVTKEVKEVATLSCGHNVSVEELEQTRIYWQKDKKMVLTMMSGDLNIWPEYKNRTIFDITNNLSIVILALRPSDEGTYECVVLKYEKGAFKREHLAEVTLSVKAD
# B2: H18Y/M47L/V68M/D90G (protein)
# chain: B1 chain with H18Y, E26A, D35E, V68M
# B3: H18Y/A26E/V68M/A71G (protein)
# chain: B1 chain with H18Y, D35E, L47M, V68M, A71G, G90D
# B4: H18Y/A26E/M47L/A71G (protein)
# chain: B1 chain with H18Y, D35E, A71G, G90D
# B5: H18Y/E35D/A71G/D90G (protein)
# chain: B1 chain with H18Y, E26A, L47M, A71G
# B6: H18Y/A26E/V68M/D90G (protein)
# chain: B1 chain with H18Y, D35E, L47M, V68M
# B7: H18C/A26P/E35D/M47L/V68M/A71G (protein, UniProt P33681 35-288, looked up, variant H18C A26P E35D M47L V68M A71G)
# T-lymphocyte activation …: VIHVTKEVKEVATLSCGCNVSVEELPQTRIYWQKDKKMVLTMMSGDLNIWPEYKNRTIFDITNNLSIMILGLRPSDEGTYECVVLKYEKDAFKREHLAEVTLSVKADFPTPSISDFEIPTSNIRRIICSTSGGFPEPHLSWLENGEELNAINTTVSQDPETELYAVSSKLDFNMTTNHSFMCLIKYGHLRVNQTFNWNTTKQEHFPDNLLPSWAITLISVNGIFVICCLTYCFAPRCRERRRNERLRRESVRPV
# B8: H18V/A26D/E35D/M47V/V68M/A71G/D90G (protein, UniProt P33681 35-288, looked up, variant H18V A26D E35D M47V V68M A71G D90G)
# T-lymphocyte activation …: B7 T-lymphocyte activation … with C18V, P26D, L47V, D90G
# modifications: Fc fusion
# B9: H18V/A26P/E35D/M47L/V68M/A71G (protein, UniProt P33681 35-288, looked up, variant H18V A26P E35D M47L V68M A71G)
# T-lymphocyte activation …: B7 T-lymphocyte activation … with C18V
# B10: H18L/A26N/D46E/V68M/A71G/D90G (protein, UniProt P33681 35-288, looked up, variant H18L A26N D46E V68M A71G D90G)
# T-lymphocyte activation …: B7 T-lymphocyte activation … with C18L, P26N, D35E, D46E, L47M, D90G
# B11: H18V/A26Q/E35D/M47V/V68L/A71G/D90G (protein, UniProt P33681 35-288, looked up, variant H18V A26Q E35D M47V V68L A71G D90G)
# T-lymphocyte activation …: B7 T-lymphocyte activation … with C18V, P26Q, L47V, M68L, D90G
# B12: H18T/A26N/E35D/M47L/V68M/A71G (protein, UniProt P33681 35-288, looked up, variant H18T A26N E35D M47L V68M A71G)
# T-lymphocyte activation …: B7 T-lymphocyte activation … with C18T, P26N
# modifications: Fc fusion
# Target: T1, CD28 (Homo sapiens, UniProt P10747)
# Test: Flow binding to Jurkat/IL2 reporter cells (CD28)
# Set-up: host or cells: Jurkat cells expressing an IL-2-luciferase reporter
# Settings: Table E20; Jurkats (CD28); 33.3 nM
# Method in brief: (§1)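 Fusion proteins bound to CHO cells stably expressing CTLA4 or PD-L1, or to Jurkat/IL2 reporter cells with endogenous CD28, for 45 min on ice after blocking in PBS/1% BSA. Detection with PE anti-human Fc by flow cytometry; PE MFI per cell type and binding EC50 determined.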
row,Molecule,CD28 MFI at 33.3 nM
1,B1,1550
2,B2,3795
3,B3,99.4
4,B4,611
5,B5,1310
6,B6,2394

# Same assay, conditions: Table E20; MFI at 33.3 nM relative to CD80 WT IgV-Fc
row,Molecule,CD28 Fold change to WT CD80
1,B1,35.3 fold
2,B2,86.4 fold
3,B3,2.3 fold
4,B4,13.9 fold
5,B5,29.8 fold
6,B6,54.5 fold

# Same assay, conditions: Table E23; CD80 IgV-Fc (inert) at 33.3 nM; Jurkat (CD28)
row,Molecule,CD28 MFI at 33.3 nM
1,B7,1906
2,B8,6253
3,B9,2452
4,B10,7253
5,B11,3126
6,B12,1366

# Same assay, conditions: Table E23; MFI at 33.3 nM relative to CD80 WT IgV-Fc
row,Molecule,CD28 Fold change to WT CD80
1,B7,18.7
2,B8,61.3
3,B9,24.0
4,B10,71.1
5,B11,30.6
6,B12,13.4

# Target: huCTLA4 (Homo sapiens, UniProt P16410)
# Sequence (P16410 36-223): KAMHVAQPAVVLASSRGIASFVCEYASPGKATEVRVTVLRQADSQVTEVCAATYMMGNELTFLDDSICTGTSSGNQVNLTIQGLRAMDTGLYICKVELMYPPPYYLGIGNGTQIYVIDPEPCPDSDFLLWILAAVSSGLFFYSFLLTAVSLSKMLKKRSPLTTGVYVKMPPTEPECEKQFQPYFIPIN
# Test: Flow binding to CHO cells stably expressing CTLA4
# Set-up: huCTLA4 and huPD-L1, full-length mammalian surface expression constructs were generated; expressed in transfected cells; host or cells: CHO cells, lentiviral transduction, sorted to >98% purity
# Settings: Table E20; CHO cells stably expressing CTLA4; 33.3 nM
# Method in brief: as §1
row,Molecule,CTLA4 MFI at 33.3 nM
1,B1,18167
2,B2,19006
3,B3,11323
4,B4,22108
5,B5,25886
6,B6,25794

# Same assay, conditions: Table E20; MFI at 33.3 nM relative to CD80 WT IgV-Fc
row,Molecule,CTLA4 Fold change to WT CD80
1,B1,13.4 fold
2,B2,14.0 fold
3,B3,8.3 fold
4,B4,16.3 fold
5,B5,19.0 fold
6,B6,19.0 fold

# Same assay, conditions: Table E23; CD80 IgV-Fc (inert) at 33.3 nM; CHO cells stably expressing CTLA4
row,Molecule,CTLA4 MFI at 33.3 nM
1,B7,23371
2,B8,22132
3,B9,16192
4,B10,17045
5,B11,17654
6,B12,20911

# Same assay, conditions: Table E23; MFI at 33.3 nM relative to CD80 WT IgV-Fc
row,Molecule,CTLA4 Fold change to WT CD80
1,B7,16.9
2,B8,16.0
3,B9,11.7
4,B10,12.3
5,B11,12.8
6,B12,15.1

# Target: T1, CD28
# Test: Jurkat/IL2 + CHO/OKT3 +/- PD-L1 reporter assay: PD-L1-dependent CD28 costimulation
# Format: cell-based
# Set-up: host or cells: Jurkat cells expressing an IL-2-luciferase reporter
# Settings: Table E22; Jurkat/IL2 + CHO/OKT3/PD-L1; 5.0 nM
# Method in brief: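 Jurkat reporter cells (100,000/well) preincubated 15 min at room temperature with test protein, then cocultured 5 h at 37 °C with CHO aAPCs bearing anti-CD3 scFv (OKT3) with or without PD-L1. Luciferase luminescence (RLU) read after lysis-substrate addition.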
row,Molecule,Fold Increase over WT CD80-IgV-Fe
1,B1,2.16 fold
2,B2,2.14 fold
3,B3,1.20 fold
4,B4,2.84 fold
5,B5,3.81 fold
6,B6,2.90 fold

# Same assay, conditions: Table E22; Jurkat/IL2 + CHO/OKT3/PD-L1; CD80 Conc 5.0 nM
row,Molecule,"Relative Luciferase Units (RLU), CD80 Conc 5.0 nM"
1,B1,843 RLU
2,B2,834 RLU
3,B3,469 RLU
4,B4,1107 RLU
5,B5,1487 RLU
6,B6,1131 RLU

# Same assay, conditions: Table E24; Jurkat/IL2 + CHO/OKT3/PD-L1; 5.0 nM
Molecule,Fold Increase over WT CD80-IgV-Fe,"Relative Luciferase Units (RLU), CD80 Conc 5.0 nM"
B7,5.5,936 RLU
B8,4.5,771 RLU
B9,4.7,808 RLU
B10,4.8,815 RLU
B11,4.6,795 RLU
B12,6.2,1053 RLU

# Target: huPD-L1 (Homo sapiens, UniProt Q9NZQ7)
# Sequence (Q9NZQ7 19-290): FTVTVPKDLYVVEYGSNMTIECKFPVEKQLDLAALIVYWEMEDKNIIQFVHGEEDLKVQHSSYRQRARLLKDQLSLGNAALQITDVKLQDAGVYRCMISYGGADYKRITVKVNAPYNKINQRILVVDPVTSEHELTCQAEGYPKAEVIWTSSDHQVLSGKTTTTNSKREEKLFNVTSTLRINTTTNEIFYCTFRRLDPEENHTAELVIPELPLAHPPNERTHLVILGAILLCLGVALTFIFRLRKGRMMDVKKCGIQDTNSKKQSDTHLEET
# Test: Flow binding to CHO cells stably expressing PD-L1
# Set-up: huCTLA4 and huPD-L1, full-length mammalian surface expression constructs were generated; expressed in transfected cells; host or cells: CHO cells, lentiviral transduction, sorted to >98% purity
# Settings: Table E20; CHO cells stably expressing PD-L1; 33.3 nM
# Method in brief: as §1
row,Molecule,PD-L1 MFI at 33.3 nM
1,B1,9577
2,B2,21768
3,B3,6866
4,B4,15563
5,B5,8524
6,B6,12845

# Same assay, conditions: Table E20; MFI at 33.3 nM relative to CD80 WT IgV-Fc
row,Molecule,PD-L1 Fold change to WT CD80
1,B1,219.7 fold
2,B2,499.3 fold
3,B3,157.5 fold
4,B4,356.9 fold
5,B5,195.5 fold
6,B6,294.6 fold

# Same assay, conditions: Table E20; ratio of MFI at 33.3 nM
row,Molecule,Ratio of PDL1:CD28
1,B1,6.2
2,B2,5.7
3,B3,69.1
4,B4,25.5
5,B5,6.5
6,B6,5.4

# Same assay, conditions: Table E23; CD80 IgV-Fc (inert) at 33.3 nM; CHO cells stably expressing PD-L1
row,Molecule,PD-L1 MFI at 33.3 nM
1,B7,67010
2,B8,67503
3,B9,52405
4,B10,67999
5,B11,33597
6,B12,68498

# Same assay, conditions: Table E23; MFI at 33.3 nM relative to CD80 WT IgV-Fc
row,Molecule,PD-L1 Fold change to WT CD80
1,B7,406.1
2,B8,409.1
3,B9,317.6
4,B10,412.1
5,B11,203.6
6,B12,415.1

# Same assay, conditions: Table E23; ratio of MFI at 33.3 nM
row,Molecule,Ratio of PDL1:CD28
1,B7,35.2
2,B8,10.8
3,B9,21.4
4,B10,9.4
5,B11,10.7
6,B12,50.1
